Reference: patent US20230416345A1 (NAVIGO PROTEINS, published 2023)

Legend:
human collagen type V [1] = target: T1, human collagen type V (human, UniProt P20908 559-1570; P05997 216-1229); assay: SPR (Biacore 3000)
T1 construct: Bought; also called h Col V; type V collagen
Experimental: (§1) The purified proteins were immobilized on a CM-5 sensor chip (GE Healthcare) using NHS/EDC after PDEA activation resulting in 110-140 RU with a Biacore 3000 system (GE Healthcare). The chip was equilibrated with SPR running buffer (PBS 0.05% Tween pH 7.3). Upon binding, target analyte was accumulated on the surface increasing the refractive index. This change in the refractive index was measured in real time and plotted as response or resonance units versus time. The analytes were applied to the chip in serial dilutions with a flow rate of 30 μl/min. The association was performed for 120 seconds and the dissociation for 120 seconds. After each run, the chip surface was regenerated with 30 μl regeneration buffer (10 mM glycine pH 2.0) and equilibrated with running buffer.
(§2) Binding studies were carried out by the use of the BIAcore 3000 (GE Healthcare); data evaluation was operated via the BIAevaluation 3.0 software, provided by the manufacturer, using the Langmuir 1:1 model (RI=0). Evaluated dissociation constants (KD) were standardized against the immobilized protein and indicated. Shown is the change in refractive index measured in real time and plotted as response or resonance unit [RU] versus time [sec].

[2] = target: T2, 67B89 (domain of fibronectin) (UniProt P02751 1089-1540, limits assumed); assay: SPR (Biacore 3000)
T2 construct: domain: EDB (67B89); Unrelated control protein; also called fibronectin domain EDB (67B89); extradomain B of fibronectin
T2 sequence (P02751 1089-1540 limits assumed): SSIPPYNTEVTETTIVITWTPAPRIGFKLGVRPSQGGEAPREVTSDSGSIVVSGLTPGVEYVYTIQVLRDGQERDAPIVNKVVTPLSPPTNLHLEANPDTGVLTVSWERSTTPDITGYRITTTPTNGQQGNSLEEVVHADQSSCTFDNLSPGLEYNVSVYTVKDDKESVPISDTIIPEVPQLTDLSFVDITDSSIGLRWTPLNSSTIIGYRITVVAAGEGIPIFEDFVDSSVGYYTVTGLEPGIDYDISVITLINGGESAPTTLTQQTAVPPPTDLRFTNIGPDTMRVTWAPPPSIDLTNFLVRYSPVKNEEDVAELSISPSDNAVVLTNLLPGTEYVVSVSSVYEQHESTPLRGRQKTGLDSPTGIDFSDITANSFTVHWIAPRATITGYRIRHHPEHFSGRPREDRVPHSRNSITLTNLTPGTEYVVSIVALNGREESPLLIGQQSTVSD
Experimental: as §1, §2

BSA [3] = target: T3, BSA (UniProt P02769 25-607); assay: SPR (Biacore 3000)
T3 construct: Control protein
Experimental: as §1, §2

[4] = target: T2, 67B89 (domain of fibronectin); assay: ELISA, 67B89 coated on the plate, A 450-600 nm
Experimental: (§3) High binding plates (Greiner, 781061) were immobilized with 2.5 μg/ml recombinant human collagen type II (h Col II, Chondrex, CHX-20051), rabbit collagen type II (rbCol II, prepared from rabbit eyes), porcine collagen type II (p Col II, prepared from porcine eyes), human collagen type I, (h Col I, Sigma, C5483-1MG), human collagen type V (h Col V, Abcam, ab7537), human collagen type III (h Col Ill, Abcam, ab7535) and 67B89 (domain of fibronectin, produced in E. coli) respectively over night at 4° C. ELISA-plates were washed 3 times with PBST (PBS+ 0.1% Tween) and blocked with 3% BSA/0.5% Tween/PBS 2 h at RT. […] Plates were washed with PBST and incubated with biotinylated anti-StrepTag-ab (Antikörper-online, ABIN1573895) with a dilution of 1:10.000 for 1 h at rt. The binding was visualized with a-rabbit-IgG-HRP (Sigma, A9169) with a dilution of 1:10.000 and as substrate TMB Plus von KEM EN TEC Diagnostic, Kat-Nr. 4395.
(§4) Results. ELISA analysis clearly confirms the specific binding to type II collagen. […] No unspecific binding to type I collagen, type III collagen, type V collagen or to a domain of fibronectin (67B89) was detected (FIG. 2).

human collagen type I [5] = target: T4, human collagen type I (human, UniProt P02452 162-1218; P08123 80-1119); assay: ELISA, h Col I coated on the plate, A 450-600 nm
T4 construct: Bought; also called h Col I; type I collagen
T4 sequence (P02452 162-1218, chain 1 of 2): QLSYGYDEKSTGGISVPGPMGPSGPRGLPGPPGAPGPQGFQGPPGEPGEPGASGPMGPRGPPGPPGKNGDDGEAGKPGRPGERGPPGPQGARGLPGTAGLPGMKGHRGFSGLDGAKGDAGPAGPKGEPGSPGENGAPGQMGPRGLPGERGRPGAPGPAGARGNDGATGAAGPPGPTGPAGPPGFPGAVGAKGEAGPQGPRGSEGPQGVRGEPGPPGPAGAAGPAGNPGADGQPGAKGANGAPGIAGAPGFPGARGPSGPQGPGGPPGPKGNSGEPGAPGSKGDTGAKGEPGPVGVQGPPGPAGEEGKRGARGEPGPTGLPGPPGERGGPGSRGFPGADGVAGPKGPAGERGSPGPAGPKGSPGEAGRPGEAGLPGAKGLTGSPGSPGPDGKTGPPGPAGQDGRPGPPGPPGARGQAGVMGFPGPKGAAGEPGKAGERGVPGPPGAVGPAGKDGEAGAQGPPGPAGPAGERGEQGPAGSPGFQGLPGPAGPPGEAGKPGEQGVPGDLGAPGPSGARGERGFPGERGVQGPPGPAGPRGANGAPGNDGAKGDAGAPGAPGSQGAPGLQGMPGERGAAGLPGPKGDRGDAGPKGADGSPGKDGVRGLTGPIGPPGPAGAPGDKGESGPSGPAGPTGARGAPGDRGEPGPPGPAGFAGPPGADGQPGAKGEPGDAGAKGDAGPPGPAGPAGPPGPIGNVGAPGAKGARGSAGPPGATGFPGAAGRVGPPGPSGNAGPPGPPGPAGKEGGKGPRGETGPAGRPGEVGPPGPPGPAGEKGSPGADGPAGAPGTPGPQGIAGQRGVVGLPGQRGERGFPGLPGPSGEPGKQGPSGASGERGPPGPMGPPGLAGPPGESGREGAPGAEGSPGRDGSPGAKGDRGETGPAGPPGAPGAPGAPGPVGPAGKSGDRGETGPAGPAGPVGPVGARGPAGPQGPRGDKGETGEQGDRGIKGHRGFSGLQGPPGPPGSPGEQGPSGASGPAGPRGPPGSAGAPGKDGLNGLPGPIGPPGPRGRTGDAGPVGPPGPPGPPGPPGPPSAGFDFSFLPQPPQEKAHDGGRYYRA
T4 sequence (P08123 80-1119, chain 2 of 2): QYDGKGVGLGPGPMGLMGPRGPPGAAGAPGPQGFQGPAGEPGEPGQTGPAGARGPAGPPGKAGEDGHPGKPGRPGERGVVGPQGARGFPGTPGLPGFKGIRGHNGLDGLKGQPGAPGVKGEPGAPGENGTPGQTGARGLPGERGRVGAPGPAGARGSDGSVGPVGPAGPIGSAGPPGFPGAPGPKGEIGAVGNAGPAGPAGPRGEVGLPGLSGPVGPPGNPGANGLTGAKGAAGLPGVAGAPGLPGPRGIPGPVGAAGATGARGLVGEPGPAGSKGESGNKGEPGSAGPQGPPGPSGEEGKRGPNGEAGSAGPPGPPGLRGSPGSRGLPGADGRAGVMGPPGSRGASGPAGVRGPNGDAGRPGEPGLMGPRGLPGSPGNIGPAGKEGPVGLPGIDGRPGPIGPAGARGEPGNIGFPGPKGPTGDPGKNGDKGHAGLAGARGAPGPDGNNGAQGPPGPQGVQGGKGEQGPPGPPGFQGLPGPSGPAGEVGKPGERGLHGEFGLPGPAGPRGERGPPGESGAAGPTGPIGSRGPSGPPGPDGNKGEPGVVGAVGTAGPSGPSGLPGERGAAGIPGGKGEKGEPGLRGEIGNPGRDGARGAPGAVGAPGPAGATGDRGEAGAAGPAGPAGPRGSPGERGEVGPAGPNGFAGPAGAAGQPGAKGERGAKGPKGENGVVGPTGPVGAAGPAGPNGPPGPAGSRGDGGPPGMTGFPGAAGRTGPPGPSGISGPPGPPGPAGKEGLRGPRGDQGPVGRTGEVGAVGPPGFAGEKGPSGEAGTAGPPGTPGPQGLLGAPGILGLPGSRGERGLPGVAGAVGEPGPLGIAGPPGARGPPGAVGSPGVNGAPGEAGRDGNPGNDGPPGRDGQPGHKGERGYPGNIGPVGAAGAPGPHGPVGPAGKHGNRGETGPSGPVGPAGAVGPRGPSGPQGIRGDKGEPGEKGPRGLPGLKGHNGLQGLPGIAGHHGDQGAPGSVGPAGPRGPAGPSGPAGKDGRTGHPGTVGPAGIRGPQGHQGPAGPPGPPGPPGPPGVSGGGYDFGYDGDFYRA
Experimental: as §3, §4

human collagen type V [6] = target: T1, human collagen type V; assay: ELISA, h Col V coated on the plate, A 450-600 nm
Experimental: as §3, §4

human collagen type III [7] = target: T5, human collagen type III (human, UniProt P02461 154-1221); assay: ELISA, h Col III coated on the plate, A 450-600 nm
T5 construct: Bought; also called h Col III; type III collagen
T5 sequence (looked up): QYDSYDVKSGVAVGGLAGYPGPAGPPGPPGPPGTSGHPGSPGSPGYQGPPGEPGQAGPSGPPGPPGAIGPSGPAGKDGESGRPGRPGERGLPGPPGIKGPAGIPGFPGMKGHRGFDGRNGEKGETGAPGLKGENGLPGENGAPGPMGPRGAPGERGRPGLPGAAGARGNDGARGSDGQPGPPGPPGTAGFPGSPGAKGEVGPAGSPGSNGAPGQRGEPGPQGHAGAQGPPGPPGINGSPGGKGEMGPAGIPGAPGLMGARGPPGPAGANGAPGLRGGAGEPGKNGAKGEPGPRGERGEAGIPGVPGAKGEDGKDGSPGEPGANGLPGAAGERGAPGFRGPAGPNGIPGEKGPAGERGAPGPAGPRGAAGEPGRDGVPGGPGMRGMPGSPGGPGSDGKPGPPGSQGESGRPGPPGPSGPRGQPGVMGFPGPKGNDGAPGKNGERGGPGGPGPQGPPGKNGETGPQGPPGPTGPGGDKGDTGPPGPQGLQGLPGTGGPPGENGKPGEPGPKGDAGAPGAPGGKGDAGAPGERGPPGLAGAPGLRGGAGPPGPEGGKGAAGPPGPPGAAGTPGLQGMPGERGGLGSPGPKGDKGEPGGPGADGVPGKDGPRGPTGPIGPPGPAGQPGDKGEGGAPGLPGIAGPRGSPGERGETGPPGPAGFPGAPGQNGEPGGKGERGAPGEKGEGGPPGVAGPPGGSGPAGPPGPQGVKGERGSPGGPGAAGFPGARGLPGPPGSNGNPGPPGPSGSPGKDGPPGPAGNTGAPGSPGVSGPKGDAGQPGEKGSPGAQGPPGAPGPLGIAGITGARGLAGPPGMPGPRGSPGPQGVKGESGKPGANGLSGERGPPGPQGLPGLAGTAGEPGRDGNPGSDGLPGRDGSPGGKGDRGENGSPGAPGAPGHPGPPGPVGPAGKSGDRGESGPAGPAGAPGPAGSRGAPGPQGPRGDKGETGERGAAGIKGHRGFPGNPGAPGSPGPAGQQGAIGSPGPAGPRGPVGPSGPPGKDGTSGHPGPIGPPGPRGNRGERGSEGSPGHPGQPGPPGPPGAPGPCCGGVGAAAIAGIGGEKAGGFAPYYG
Experimental: as §3, §4

porcine collagen type II [8] = target: T6, porcine collagen type II (porcine); assay: ELISA, collagen coated on the plate, dilution series of the binder, detection via StrepTag, A 450-600 nm
T6 construct: Prepared in house from pig eyes; also called p Col II; porcine type II collagen
Experimental: as §3, §4

rabbit collagen type II = target: T7, rabbit collagen type II (rabbit); assay: as above
T7 construct: Prepared from rabbit eyes; also called rbCol II
Experimental: as §3, §4

porcine collagen type II [9] = target: T6, porcine collagen type II; assay: ELISA (KD determination by ELISA, Example 5)
human collagen type I [10] = target: T4, human collagen type I; assay: SPR (Biacore), response at steady state; concentration not shown
Experimental: as §1, §2

human collagen type III [11] = target: T5, human collagen type III; assay: as above
Experimental: as §1, §2

human collagen type V [12] = target: T1, human collagen type V; assay: as above
Experimental: as §1, §2

[13] = target: T2, 67B89 (domain of fibronectin); assay: as above
Experimental: as §1, §2

BSA [14] = target: T3, BSA; assay: as above
Experimental: as §1, §2

T1 sequence (P20908 559-1570, chain 1 of 2): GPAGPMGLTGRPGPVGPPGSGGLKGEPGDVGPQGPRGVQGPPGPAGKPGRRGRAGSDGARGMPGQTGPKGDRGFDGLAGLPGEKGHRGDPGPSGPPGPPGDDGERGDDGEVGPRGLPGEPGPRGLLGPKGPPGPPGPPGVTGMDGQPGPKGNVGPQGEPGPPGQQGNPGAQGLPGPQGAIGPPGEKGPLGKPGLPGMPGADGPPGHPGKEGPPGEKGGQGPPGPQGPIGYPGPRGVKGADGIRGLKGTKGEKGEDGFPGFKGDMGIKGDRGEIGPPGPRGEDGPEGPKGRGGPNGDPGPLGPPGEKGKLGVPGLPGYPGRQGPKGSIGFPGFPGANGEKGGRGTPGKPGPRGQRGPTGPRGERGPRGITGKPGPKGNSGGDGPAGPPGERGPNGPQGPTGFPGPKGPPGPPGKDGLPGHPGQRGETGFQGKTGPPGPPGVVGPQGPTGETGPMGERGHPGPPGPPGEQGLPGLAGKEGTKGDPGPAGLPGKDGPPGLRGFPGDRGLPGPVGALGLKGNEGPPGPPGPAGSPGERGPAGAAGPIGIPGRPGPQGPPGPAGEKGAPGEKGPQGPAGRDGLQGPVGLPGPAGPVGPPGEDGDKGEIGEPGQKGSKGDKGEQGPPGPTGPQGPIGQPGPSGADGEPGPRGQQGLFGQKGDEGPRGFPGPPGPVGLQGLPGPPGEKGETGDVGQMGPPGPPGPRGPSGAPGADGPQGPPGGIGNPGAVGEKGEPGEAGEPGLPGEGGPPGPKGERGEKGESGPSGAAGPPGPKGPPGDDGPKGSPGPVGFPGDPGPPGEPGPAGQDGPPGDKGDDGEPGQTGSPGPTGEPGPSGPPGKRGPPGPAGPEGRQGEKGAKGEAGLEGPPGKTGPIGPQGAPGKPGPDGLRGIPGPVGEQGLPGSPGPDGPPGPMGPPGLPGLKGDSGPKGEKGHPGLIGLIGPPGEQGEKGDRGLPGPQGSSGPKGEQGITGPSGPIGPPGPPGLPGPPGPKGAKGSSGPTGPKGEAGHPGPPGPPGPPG
T1 sequence (P05997 216-1229, chain 2 of 2): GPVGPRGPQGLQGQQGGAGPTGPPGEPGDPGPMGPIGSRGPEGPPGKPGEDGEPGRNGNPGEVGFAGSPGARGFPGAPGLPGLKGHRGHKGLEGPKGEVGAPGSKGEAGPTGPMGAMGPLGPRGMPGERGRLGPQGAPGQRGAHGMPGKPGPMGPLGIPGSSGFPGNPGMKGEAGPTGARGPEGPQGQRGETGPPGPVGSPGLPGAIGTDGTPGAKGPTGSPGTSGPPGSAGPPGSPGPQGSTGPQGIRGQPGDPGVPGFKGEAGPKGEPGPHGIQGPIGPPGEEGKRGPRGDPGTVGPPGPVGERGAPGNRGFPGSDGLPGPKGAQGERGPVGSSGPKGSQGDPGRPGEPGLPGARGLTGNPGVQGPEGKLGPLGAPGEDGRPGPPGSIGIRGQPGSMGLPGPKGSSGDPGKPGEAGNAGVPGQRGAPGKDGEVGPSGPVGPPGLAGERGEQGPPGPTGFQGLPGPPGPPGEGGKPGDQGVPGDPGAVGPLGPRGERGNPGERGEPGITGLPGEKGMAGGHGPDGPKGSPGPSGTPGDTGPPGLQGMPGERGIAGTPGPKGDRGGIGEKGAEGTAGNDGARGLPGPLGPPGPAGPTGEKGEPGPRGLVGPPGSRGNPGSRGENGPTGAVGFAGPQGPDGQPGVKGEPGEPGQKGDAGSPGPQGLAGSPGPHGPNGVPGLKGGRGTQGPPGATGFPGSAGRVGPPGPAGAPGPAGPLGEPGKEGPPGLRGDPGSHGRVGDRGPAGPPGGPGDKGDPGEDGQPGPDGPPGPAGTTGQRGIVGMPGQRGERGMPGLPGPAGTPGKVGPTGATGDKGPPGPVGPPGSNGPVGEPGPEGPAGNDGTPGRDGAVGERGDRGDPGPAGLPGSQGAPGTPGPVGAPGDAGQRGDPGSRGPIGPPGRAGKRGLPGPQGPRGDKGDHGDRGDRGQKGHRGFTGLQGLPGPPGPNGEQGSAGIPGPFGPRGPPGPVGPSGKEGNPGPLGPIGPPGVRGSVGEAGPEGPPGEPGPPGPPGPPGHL

B1: 211190 (SEQ ID NO: 1) (designed binder)
chain: NAASHDEAQLSALVEIWDLPNLTTRQKQKFIYSLQRDPSVSKEVLGEAQKLNDSQAPK
notes: also called CID211190; not shown: C-terminal Strep-tag from the expression vector
B1: no binding (human collagen type V [1]); no binding [2]; no binding (BSA [3]).

B2: CID 212001 (SEQ ID NO: 41), tetramer of SEQ ID NO: 2 (designed binder)
chain: IAAKFDEAQSAADSEILHLPNLTEQQRHYFRRWLSDDPSVSTHILTQAQHLNDDQAPKIAAKFDEAQSAADSEILHLPNLTEQQRHYFRRWLSDDPSVSTHILTQAQHLNDDQAPKIAAKFDEAQSAADSEILHLPNLTEQQRHYFRRWLSDDPSVSTHILTQAQHLNDDQAPKIAAKFDEAQSAADSEILHLPNLTEQQRHYFRRWLSDDPSVSTHILTQAQHLNDDQAPKSAWSHPQFEK
notes: not shown: C-terminal Strep-tag (detected with anti-StrepTag antibody)
B2: no binding (tested: 100 nM) [4]; no binding (tested: 100 nM) (human collagen type I [5]); no binding (tested: 100 nM) (human collagen type V [6]). The binding result (human collagen type III [7]) was “no binding (tested: 100 nM)”, the Kd (porcine collagen type II [8]) was 0.27 nM and the Kd (rabbit collagen type II) was 0.21 nM.

B3: CID 212000 (SEQ ID NO: 39), dimer of SEQ ID NO: 2 with linker between the monomers (designed binder)
chain: IAAKFDEAQSAADSEILHLPNLTEQQRHYFRRWLSDDPSVSTHILTQAQHLNDDQAPKGGGGSGGGGSGGGGSGGGGSIAAKFDEAQSAADSEILHLPNLTEQQRHYFRRWLSDDPSVSTHILTQAQHLNDDQAPKSAWSHPQFEK
notes: as for B2
B3: no binding (tested: about 1100 nM) [4]; no binding (tested: about 1100 nM) (human collagen type I [5]); no binding (tested: about 1100 nM) (human collagen type V [6]). The binding result (human collagen type III [7]) was “no binding (tested: about 1100 nM)”, the Kd (porcine collagen type II [8]) was 9.11 nM and the Kd (rabbit collagen type II) was 12 nM.

B4: CID 211999 (SEQ ID NO: 38), dimer of SEQ ID NO: 2 (directly joint monomers) (designed binder)
chain: IAAKFDEAQSAADSEILHLPNLTEQQRHYFRRWLSDDPSVSTHILTQAQHLNDDQAPKIAAKFDEAQSAADSEILHLPNLTEQQRHYFRRWLSDDPSVSTHILTQAQHLNDDQAPKSAWSHPQFEK
notes: as for B2
B4: no binding (tested: about 1100 nM) [4]; no binding (tested: about 1100 nM) (human collagen type I [5]); no binding (tested: about 1100 nM) (human collagen type V [6]). The binding result (human collagen type III [7]) was “no binding (tested: about 1100 nM)”, the Kd (porcine collagen type II [8]) was 14.3 nM and the Kd (rabbit collagen type II) was 21.1 nM.

B5: 211519 (SEQ ID NO: 37), homodimer of SEQ ID NO: 11 (designed binder)
chain: IAAKFDEAQQAAFYEILHLPNLTEQQRNYFIQWLRDDPSVSPTVLGTAQQLNDSQAPKIAAKFDEAQQAAFYEILHLPNLTEQQRNYFIQWLRDDPSVSPTVLGTAQQLNDSQAPK
notes: also called CID 211519; not shown: C-terminal Strep-tag from the expression vector
For B5, the Kd (porcine collagen type II [9]) was 700 nM, the binding result (human collagen type I [10]) was “no binding” and the binding result (human collagen type III [11]) was “no binding”. B5: no binding (human collagen type V [12]); no binding [13]; no binding (BSA [14]).
